Measured values taken from US20150210756A1 (NEW YORK UNIVERSITY, published 2015).

Assays:
LukS-PV = target: T1, LukS-PV (S. aureus); experiment: ELISA on purified, recombinant LukS-PV
T1 construct: also called Panton-Valentine leukocidin S; LukS-PV subunit of the PVL leukotoxin
T1 chain: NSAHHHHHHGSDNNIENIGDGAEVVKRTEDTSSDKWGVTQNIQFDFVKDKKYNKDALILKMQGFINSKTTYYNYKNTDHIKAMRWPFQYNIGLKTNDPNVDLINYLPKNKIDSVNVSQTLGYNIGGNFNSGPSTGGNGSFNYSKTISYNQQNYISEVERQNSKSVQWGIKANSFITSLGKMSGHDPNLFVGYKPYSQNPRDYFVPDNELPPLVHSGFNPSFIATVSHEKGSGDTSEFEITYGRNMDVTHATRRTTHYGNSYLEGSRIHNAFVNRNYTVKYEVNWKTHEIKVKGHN

HlgC = target: T2, HlgC (S. aureus, UniProt Q07227 30-315); experiment: ELISA on purified, recombinant HlgC
T2 construct: also called gamma hemolysin C; HlgC subunit
T2 sequence: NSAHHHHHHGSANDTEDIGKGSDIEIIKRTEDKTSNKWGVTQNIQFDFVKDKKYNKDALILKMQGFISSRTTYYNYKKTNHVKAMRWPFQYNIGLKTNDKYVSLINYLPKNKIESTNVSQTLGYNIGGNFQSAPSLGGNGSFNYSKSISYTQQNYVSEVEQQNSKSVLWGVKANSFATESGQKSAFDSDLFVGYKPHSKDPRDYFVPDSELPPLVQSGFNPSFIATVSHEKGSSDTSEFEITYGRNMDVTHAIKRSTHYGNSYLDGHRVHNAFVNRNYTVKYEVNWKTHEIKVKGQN

[1] = target: T3, SdgB-glycosylated recombinant SdrC4 protein (S. aureus, UniProt O86487 51-910); experiment: ELISA on coated SdgB-glycosylated SdrC4
T3 construct: also called SdgB-glycosylated SdrC4 protein
T3 sequence (O86487 51-910, tags left off): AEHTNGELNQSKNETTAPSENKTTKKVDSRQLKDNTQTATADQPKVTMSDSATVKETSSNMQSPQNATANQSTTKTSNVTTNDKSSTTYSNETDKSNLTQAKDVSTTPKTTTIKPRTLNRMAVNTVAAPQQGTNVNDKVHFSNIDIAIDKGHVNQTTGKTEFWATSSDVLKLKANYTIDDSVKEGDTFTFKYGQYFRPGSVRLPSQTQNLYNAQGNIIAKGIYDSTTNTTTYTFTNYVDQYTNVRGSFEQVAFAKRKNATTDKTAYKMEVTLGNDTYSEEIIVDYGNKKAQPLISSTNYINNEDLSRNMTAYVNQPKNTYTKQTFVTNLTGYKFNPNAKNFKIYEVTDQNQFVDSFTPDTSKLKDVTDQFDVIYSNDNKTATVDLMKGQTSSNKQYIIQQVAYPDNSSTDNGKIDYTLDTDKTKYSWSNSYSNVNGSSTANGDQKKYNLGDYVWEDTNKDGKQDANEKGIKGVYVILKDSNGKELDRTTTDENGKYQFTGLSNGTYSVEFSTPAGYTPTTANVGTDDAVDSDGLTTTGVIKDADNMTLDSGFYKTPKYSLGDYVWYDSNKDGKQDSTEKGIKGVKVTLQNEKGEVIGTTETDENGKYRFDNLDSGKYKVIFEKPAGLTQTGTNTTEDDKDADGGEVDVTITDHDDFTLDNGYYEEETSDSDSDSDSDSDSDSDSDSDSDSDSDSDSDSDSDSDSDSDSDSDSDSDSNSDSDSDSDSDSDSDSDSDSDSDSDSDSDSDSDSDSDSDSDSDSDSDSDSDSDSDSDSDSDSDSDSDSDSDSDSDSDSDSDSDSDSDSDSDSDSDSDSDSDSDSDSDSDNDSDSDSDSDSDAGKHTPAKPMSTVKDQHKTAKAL

HlgA = target: T4, HlgA (S. aureus, UniProt P0A071 30-309); experiment: ELISA on purified, recombinant HlgA
T4 construct: also called gamma hemolysin A; HlgA subunit
T4 sequence: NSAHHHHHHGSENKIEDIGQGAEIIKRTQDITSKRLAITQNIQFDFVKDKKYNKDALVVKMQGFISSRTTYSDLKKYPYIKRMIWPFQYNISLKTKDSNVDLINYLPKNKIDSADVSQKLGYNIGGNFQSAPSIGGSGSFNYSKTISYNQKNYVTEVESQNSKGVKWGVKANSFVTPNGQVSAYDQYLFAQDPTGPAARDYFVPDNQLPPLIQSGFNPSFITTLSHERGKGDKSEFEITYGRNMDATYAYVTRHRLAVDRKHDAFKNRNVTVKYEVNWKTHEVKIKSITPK

human FcγRIIIa (V158) = human FcγRIIIa (V158) (human, UniProt P08637 17-208); experiment: AlphaScreen competition against biotinylated IgG1
Chain of human FcγRIIIa (V158) (P08637 17-208 F176V limits assumed): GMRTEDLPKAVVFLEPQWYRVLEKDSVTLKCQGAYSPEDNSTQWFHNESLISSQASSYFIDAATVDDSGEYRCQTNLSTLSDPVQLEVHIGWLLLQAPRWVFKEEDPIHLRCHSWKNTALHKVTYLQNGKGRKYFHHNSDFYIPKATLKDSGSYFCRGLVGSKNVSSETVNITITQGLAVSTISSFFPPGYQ

human FcγRI = human FcγRI (human, UniProt P12314 16-288); experiment: AlphaScreen competition against biotinylated IgG1
Chain of human FcγRI (P12314 16-288 limits assumed): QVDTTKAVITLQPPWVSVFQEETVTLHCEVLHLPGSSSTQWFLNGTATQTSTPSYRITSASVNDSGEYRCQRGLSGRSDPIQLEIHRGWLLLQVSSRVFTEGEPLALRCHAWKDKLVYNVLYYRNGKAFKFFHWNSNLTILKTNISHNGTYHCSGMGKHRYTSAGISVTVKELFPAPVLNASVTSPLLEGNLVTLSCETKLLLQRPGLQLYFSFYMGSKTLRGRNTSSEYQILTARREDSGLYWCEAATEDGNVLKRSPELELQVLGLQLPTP

Protein A [2] = target: T5, Protein A (Staphylococcus aureus, UniProt P38507 37-477); experiment: western blot of S. aureus lysates
T5 construct: also called S. aureus Protein A; SpA

Protein A [3] = target: T5, Protein A; experiment: direct ELISA on coated biotinylated Protein A

B1: Luk647 (designed binder)
chain: LPAPKNLVVSRVTEDSARLSWTAPDAAFDSFSIYYGEWDPTGEAIVLTVPGSERSYDLTGLKPGTEYWVLIVGVKGGSTSAPLSAIFTT
Does B1 bind (LukS-PV)?
Result: binds

B2: Luk188 (designed binder)
chain: LPAPKNLVVSRVTEDSARLSWTAPDAAFDSFHIHYWEFNPAGEAIVLTVPGSERSYDLTGLKPGTEYFVGIHGVKGGGISWPLSAIFTT
Does B2 bind (HlgC)?
Result: binds

B3: pagibaximab (antibody, V domains shown)
VH: EVMLVESGGGLVQPKGSLKLSCAASGFTFNNYAMNWVRQAPGKGLEWVARIRSKSNNYATFYADSVKDRFTISRDDSQSMLYLQMNNLKTEDTAMYYCVRRGASGIDYAMDYWGQGTSLTVSS
VL: DIVLSQSPAILSASPGEKVTMTCRASSSVNYMHWYQQKPGSSPKPWISATSNLASGVPARFSGSGSGTSYSLTISRVEAEDAATYYCQQWSSNPPTFGGGTMLEIKR
notes: also called anti-LTA mAb
Does B3 bind [1]?
Result: no binding (tested: starting at 10 µg/mL)

B4: Luk151 (designed binder)
chain: LPAPKNLVVSRVTEDSARLSWTAPDAAFDSFGITYTEVYWWGEAIVLTVPGSERSYDLTGLKPGTEYTVTIPGVKGGWISAPLSAIFTT
Does B4 bind (HlgA)?
Result: binds

B5: mAb 5133 A6 (Construct 3, CR5133 A6) (antibody)
heavy: not shown
light: EIVLTQSPATLSLSPGERATLSCRASQSVSGYLGWYQQKPGQAPRLLIYGASSRATGIPDRFSGSGSGTDFTLTISRLEPEDFAVYYCQQYGSSPLTFGGGTKLEIKRTVAAPSVFIFPPSDEQLKSGTASVVCLLNNFYPREAKVQWKVDNALQSGNSQESVTEQDSKDSTYSLSSTLTLSKADYEKHKVYACEVTHQGLSSPVTKSFNRGEC
Does B5 bind (human FcγRIIIa (V158))?
Result: binds

Does B5 bind (human FcγRI)?
Result: binds

Does B5 bind (Protein A [2])?
Result: no binding (tested: 2 µg/mL)

B6: CR5133 PRASA A6 HC-AB (Construct 6) (other)
heavy: EVQLVETGGGLVKPGGSLRLSCSASRFSFRDYYMTWIRQAPGKGPEWVSHISGSGSTIYYADSVRGRFTISRDNAKSSLYLQMDSLQADDTAVYYCARGGRATSYYWVHWGPGTLVTVSSASTKGPSVFPLAPSSKSTSGGTAALGCLVKDYFPEPVTVSWNSGALTSGVHTFPAVLQSSGLYSLSSVVTVPSSSLGTQTYICNVNHKPSNTKVDKKVEPKSCDKTHTCPPCPAPPVAGPDVFLFPPKPKDTLMISRTPEVTCVVVDVSHEDPEVKFNWYVDGVEVHNAKTKPREEQYNSTYRVVSVLTVLHQDWLNGKEYKCKVSNAALPAPIAKTISKAKGQPREPQVYTLPPSRDELTKNQVSLTCLVKGFYPSDIAVEWESNGQPENNYKTTPPVLDSDGSFFLYSKLTVDKSRWQQGNVFSCSVMHEALHNRFTQKSLSLSPGKGGGGSGGGGSGGGGSGGGGSMLPAPKNLVVSRVTEDSARLSWTAPDAAFDSFWITYEEKFYRGEAIVLTVPGSERSYDLTGLKPGTEYKVWIVGVKGGQGSWPLSAIFTT
light: B5 light
notes: also called mAb 5133 PRASA A6 HC LukAB
Does B6 bind (human FcγRIIIa (V158))?
Result: binds

Does B6 bind (human FcγRI)?
Result: no binding

Does B6 bind (Protein A [3])?
Result: no binding

B7: mAb 5133 PRASA A6 (Construct 4, CR5133 PRASA A6) (antibody)
heavy: EVQLVETGGGLVKPGGSLRLSCSASRFSFRDYYMTWIRQAPGKGPEWVSHISGSGSTIYYADSVRGRFTISRDNAKSSLYLQMDSLQADDTAVYYCARGGRATSYYWVHWGPGTLVTVSSASTKGPSVFPLAPSSKSTSGGTAALGCLVKDYFPEPVTVSWNSGALTSGVHTFPAVLQSSGLYSLSSVVTVPSSSLGTQTYICNVNHKPSNTKVDKKVEPKSCDKTHTCPPCPAPPVAGPDVFLFPPKPKDTLMISRTPEVTCVVVDVSHEDPEVKFNWYVDGVEVHNAKTKPREEQYNSTYRVVSVLTVLHQDWLNGKEYKCKVSNAALPAPIAKTISKAKGQPREPQVYTLPPSRDELTKNQVSLTCLVKGFYPSDIAVEWESNGQPENNYKTTPPVLDSDGSFFLYSKLTVDKSRWQQGNVFSCSVMHEALHNRFTQKSLSLSPGK
light: B5 light
notes: also called PRASA A6 parental mAb
Which results are given for B7?
binding result (human FcγRIIIa (V158)): binds; binding result (human FcγRI): no binding; binding result (Protein A [2]): no binding (tested: 2 µg/mL)

B8: Luk540 (designed binder)
chain: LPAPKNLVVSRVTEDSARLSWTAPDAAFDSFHIEYPEDTEQGEAIVLTVPGSERSYDLTGLKPGTEYNVHITGVKGGSKSAPLSAIFTT
Does B8 bind (LukS-PV)?
Result: binds

B9: Luk129 (designed binder)
chain: LPAPKNLVVSRVTEDSARLSWTAPDAAFDSFNINYPEEFHGGEAIVLTVPGSERSYDLTGLKPGTEYEVWIWGVKGGSSSNPLSAIFTT
Does B9 bind (HlgA)?
Result: binds

B10: Luk357 (designed binder)
chain: LPAPKNLVVSRVTEDSARLSWTAPDAAFDSFTIHYFESLLTGEAISLVVPGSERSYDLTGLKPGTEYLVPIYGVKGGFISQPLIAIFTT
Does B10 bind (HlgC)?
Result: binds

B11: CR5133 PRASA A6 LC-D (Construct 5) (other)
heavy: B7 heavy
light: EIVLTQSPATLSLSPGERATLSCRASQSVSGYLGWYQQKPGQAPRLLIYGASSRATGIPDRFSGSGSGTDFTLTISRLEPEDFAVYYCQQYGSSPLTFGGGTKLEIKRTVAAPSVFIFPPSDEQLKSGTASVVCLLNNFYPREAKVQWKVDNALQSGNSQESVTEQDSKDSTYSLSSTLTLSKADYEKHKVYACEVTHQGLSSPVTKSFNRGECGGGGSGGGGSGGGGSGGGGSLPAPKNLVVSRVTEDSARLSWRAKPWAPKFDSFLIQYQESEKVGEAIVLTVPGSERSYDLTGLKPGTEYTVSIYGVKASEKFIESNPLSAIFTT
Which results are given for B11?
binding result (human FcγRIIIa (V158)): binds; binding result (human FcγRI): no binding; binding result (Protein A [3]): no binding

B12: CR5133 PRASA A6 LC-D HC-AB (Construct 7) (other)
heavy: B6 heavy
light: B11 light
notes: also called PRASA A6 LC-D AB construct 7
Does B12 bind (human FcγRIIIa (V158))?
Result: binds

Does B12 bind (human FcγRI)?
Result: no binding

Does B12 bind (Protein A [3])?
Result: no binding
